Experimental data reported in PMC8303780, “Mutational Analysis of Redβ Single Strand Annealing Protein: Roles of the 14 Lysine Residues in DNA Binding and Recombination In Vivo”.

Experiments:
Redβ WT = target: T1, Redβ WT (bacteriophage λ, UniProt P03698 1-261); test: fluorescence anisotropy; conditions: Anisotropy: 50 mM Tris-HCl pH 7.5, 1 mM DTT, 0.1 mg/mL BSA, 10 nM FAM48, 23 °C (Kd per monomer), gel assay: 10 µM Redβ, 50 µM nt of each oligo, PBS, 37 °C
T1 sequence: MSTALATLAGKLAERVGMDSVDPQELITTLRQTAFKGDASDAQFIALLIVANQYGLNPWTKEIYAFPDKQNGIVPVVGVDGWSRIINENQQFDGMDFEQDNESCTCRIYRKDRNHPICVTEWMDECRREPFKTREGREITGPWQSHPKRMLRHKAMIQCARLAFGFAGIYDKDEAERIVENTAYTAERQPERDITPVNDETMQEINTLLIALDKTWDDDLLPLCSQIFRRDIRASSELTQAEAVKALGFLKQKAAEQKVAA

[1] = target: T2, Redβ K148A K148A (bacteriophage λ) (UniProt P03698); test: fluorescence anisotropy; conditions: Anisotropy: 50 mM Tris-HCl pH 7.5, 1 mM DTT, 0.1 mg/mL BSA, 10 nM FAM48, 23 °C (Kd per monomer), gel assay: 10 µM Redβ, 50 µM nt of each oligo, PBS, 37 °C
T2 sequence: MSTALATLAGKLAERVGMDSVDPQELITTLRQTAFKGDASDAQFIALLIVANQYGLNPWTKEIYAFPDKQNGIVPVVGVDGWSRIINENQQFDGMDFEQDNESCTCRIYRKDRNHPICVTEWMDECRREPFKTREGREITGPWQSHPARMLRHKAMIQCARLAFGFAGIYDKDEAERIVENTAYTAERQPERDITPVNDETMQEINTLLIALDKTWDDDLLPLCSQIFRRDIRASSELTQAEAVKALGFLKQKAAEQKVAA

[2] = target: T3, Redβ K172A K172A (bacteriophage λ) (UniProt P03698); test: fluorescence anisotropy; conditions: Anisotropy: 50 mM Tris-HCl pH 7.5, 1 mM DTT, 0.1 mg/mL BSA, 10 nM FAM48, 23 °C (Kd per monomer), gel assay: 10 µM Redβ, 50 µM nt of each oligo, PBS, 37 °C
T3 sequence: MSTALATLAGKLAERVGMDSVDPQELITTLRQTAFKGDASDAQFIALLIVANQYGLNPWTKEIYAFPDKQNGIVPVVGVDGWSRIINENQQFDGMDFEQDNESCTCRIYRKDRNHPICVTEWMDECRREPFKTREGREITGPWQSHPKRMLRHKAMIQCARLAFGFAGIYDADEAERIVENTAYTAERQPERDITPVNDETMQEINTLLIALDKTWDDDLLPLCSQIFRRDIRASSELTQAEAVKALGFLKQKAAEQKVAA

[3] = target: T4, Redβ K251A K251A (bacteriophage λ) (UniProt P03698); test: fluorescence anisotropy; conditions: Anisotropy: 50 mM Tris-HCl pH 7.5, 1 mM DTT, 0.1 mg/mL BSA, 10 nM FAM48, 23 °C (Kd per monomer), gel assay: 10 µM Redβ, 50 µM nt of each oligo, PBS, 37 °C
T4 sequence: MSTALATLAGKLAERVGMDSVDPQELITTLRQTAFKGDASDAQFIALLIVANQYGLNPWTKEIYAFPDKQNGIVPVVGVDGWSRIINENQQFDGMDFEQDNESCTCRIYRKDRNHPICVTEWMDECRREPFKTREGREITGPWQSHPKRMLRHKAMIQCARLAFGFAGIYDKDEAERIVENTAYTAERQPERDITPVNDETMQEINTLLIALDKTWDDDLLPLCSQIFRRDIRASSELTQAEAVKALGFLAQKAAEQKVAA

[4] = target: T5, Redβ K11A K11A (bacteriophage λ) (UniProt P03698); test: fluorescence anisotropy; conditions: Anisotropy: 50 mM Tris-HCl pH 7.5, 1 mM DTT, 0.1 mg/mL BSA, 10 nM FAM48, 23 °C (Kd per monomer), gel assay: 10 µM Redβ, 50 µM nt of each oligo, PBS, 37 °C
T5 sequence: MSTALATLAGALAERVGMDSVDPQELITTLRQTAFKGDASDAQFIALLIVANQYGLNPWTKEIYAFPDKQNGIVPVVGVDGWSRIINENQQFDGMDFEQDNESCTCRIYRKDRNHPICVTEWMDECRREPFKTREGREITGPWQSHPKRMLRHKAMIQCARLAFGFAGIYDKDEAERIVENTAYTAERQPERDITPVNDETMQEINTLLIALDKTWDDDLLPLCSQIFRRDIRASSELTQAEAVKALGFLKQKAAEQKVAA

[5] = target: T6, Redβ K69A K69A (bacteriophage λ) (UniProt P03698); test: fluorescence anisotropy; conditions: Anisotropy: 50 mM Tris-HCl pH 7.5, 1 mM DTT, 0.1 mg/mL BSA, 10 nM FAM48, 23 °C (Kd per monomer), gel assay: 10 µM Redβ, 50 µM nt of each oligo, PBS, 37 °C
T6 sequence: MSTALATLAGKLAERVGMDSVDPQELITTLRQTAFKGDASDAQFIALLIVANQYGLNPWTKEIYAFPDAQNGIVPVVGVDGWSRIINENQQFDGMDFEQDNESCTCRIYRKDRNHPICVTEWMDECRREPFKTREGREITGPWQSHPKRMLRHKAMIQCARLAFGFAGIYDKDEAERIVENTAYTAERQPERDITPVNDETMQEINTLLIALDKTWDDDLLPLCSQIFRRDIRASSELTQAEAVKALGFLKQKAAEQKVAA

Redβ K148A = target: T7, Redβ K148A (bacteriophage λ, UniProt P03698 1-261, K148A); test: EMSA; strands added sequentially; Anisotropy: 50 mM Tris-HCl pH 7.5, 1 mM DTT, 0.1 mg/mL BSA, 10 nM FAM48, 23 °C (Kd per monomer); gel assay: 10 µM Redβ, 50 µM nt of each oligo, PBS, 37 °C, 1% agarose at 22 °C; conditions: protein: recombinant; tags: 6xHis removed by thrombin; residual N-terminal GSH; label: 5'-Cy3 and 5'-Cy5; complementary 50-mers; annealed by protein
T7 sequence: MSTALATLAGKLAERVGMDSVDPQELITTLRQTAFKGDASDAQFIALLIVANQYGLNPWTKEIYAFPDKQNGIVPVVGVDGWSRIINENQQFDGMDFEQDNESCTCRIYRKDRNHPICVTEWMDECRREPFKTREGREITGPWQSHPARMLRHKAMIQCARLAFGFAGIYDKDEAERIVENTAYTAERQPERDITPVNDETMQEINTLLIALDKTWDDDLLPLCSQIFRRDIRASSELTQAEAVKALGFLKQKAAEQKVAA

Redβ K132A = target: T8, Redβ K132A (bacteriophage λ, UniProt P03698 1-261, K132A); test: as above; conditions: protein: recombinant; tags: 6xHis removed by thrombin; residual N-terminal GSH; label: 5'-Cy3 and 5'-Cy5; complementary 50-mers; annealed by protein
T8 sequence: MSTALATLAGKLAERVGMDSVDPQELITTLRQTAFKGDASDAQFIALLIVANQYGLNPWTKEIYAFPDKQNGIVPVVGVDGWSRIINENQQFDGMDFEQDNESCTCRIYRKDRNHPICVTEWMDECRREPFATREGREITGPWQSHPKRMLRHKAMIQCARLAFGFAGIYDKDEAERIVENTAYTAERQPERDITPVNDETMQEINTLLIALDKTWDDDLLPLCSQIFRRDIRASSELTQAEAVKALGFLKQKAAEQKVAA

Redβ K251A = target: T9, Redβ K251A (bacteriophage λ, UniProt P03698 1-261, K251A); test: as above; conditions: protein: recombinant; tags: 6xHis removed by thrombin; residual N-terminal GSH; label: 5'-Cy3 and 5'-Cy5; complementary 50-mers; annealed by protein
T9 sequence: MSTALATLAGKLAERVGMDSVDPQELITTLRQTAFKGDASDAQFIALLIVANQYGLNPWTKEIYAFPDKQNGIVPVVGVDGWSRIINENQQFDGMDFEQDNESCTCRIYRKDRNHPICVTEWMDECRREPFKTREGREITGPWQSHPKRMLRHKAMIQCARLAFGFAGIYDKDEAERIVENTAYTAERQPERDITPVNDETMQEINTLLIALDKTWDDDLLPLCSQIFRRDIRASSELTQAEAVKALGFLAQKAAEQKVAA

Molecule | Kd (Redβ WT) [nM] | Kd [1] [µM] | Kd [2] [nM] | Kd [3] [nM] | Kd [4] [nM] | Kd [5] [nM] | binding result (Redβ K148A) | binding result (Redβ K132A) | binding result (Redβ K251A)
FAM48 48-mer ssDNA | 110 | 14.1 | 2600 | 190 | 230 | 410 |  |  | 
annealed duplex of Cy3 and Cy5 50-mers, strands added sequentially (dsDNA) DNA 1: GCGGATGGCTTAGAGCAGAATCGCCCTGCATAGCTCGATTTTTGCGGATG DNA 2: CCATCCGCAAAAATCGAGCTATGCAGGGCGATTCTGCTCTAAGCCATCCG |  |  |  |  |  |  | no binding | no binding | binds
